Measurements as given in the supplement of paper PMC9170038.

System: MS2 coat protein
Test: apparent KD of MS2 coat protein; higher = weaker reporter binding
Conditions: Eterna round: R107
Outline: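 Apparent KD is reported per design as the median of normalised binding-curve fits across its clusters. The RNA switches were made by on-chip transcription from Illumina sequencing clusters. SNAP-549-labelled MS2 coat protein was then added in twofold steps (0.7 or 1.5 nM to 3 µM; 0.8–1.5 h to 10–20 min per step) in 100 mM Tris-HCl pH 7.5, 80 mM KCl, 4 mM MgCl2, without or with constant ligand.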

[1] = input ligand: theophylline 20 uM
[2] = input ligand: theophylline 2 mM
[3] = input ligand: tryptophan 2.4 mM

Row | Sequence | apparent KD of MS2 coat protein (input ligand: arginine 13.2 mM) [nM] | apparent KD of MS2 coat protein [1] [nM] | apparent KD of MS2 coat protein [2] [nM] | apparent KD of MS2 coat protein (input ligand: none) [nM] | apparent KD of MS2 coat protein [3] [nM]
1 | UCCGGACGUUCGGCCGCCACUAAUUUACAUGAGGAUCACCCAUGUGCCAGUGGUCCGCAGAGUAAUAGGACCGGGAACCUUGGCU [theeternabot_exclusion_MS2_Trp_B_10] | 24.4 | 30.8 | 26.3 |  | 
2 | UCCUACACGGAGACGUGUAGGAGUAAUGAUACCAGCAUGGAGACAUGCCCUUGGCAGCGUUACAUGAGGAUCACCCAUGUGGUGC [ETHA #7] | 14.7 | 26.2 | 270 | 16.3 | 17.7
3 | UCCUGCAGAGCGGCCGCCACUGUAUUGCGUGAGGAUGACCCAACAUGAGGAUCACCCAUGUUGUUUAGGACCGGGCUUGCCACCA [lkpmullin] | 16.7 | 18.5 | 18.1 | 14.2 | 18.2
4 | UCGCCCAGGUAGGAUUGAUGGGAUAUGGAAGGAGCGCUGAUGCCAGCAGGUAGGUCGCCAACGGACAUGAGGAUCACCCAUGUAC [Same State - Arginine A (Freestyle 5)] | 16.5 | 34.6 | 28.3 | 18.7 | 25.2
5 | UCGCGAUAGAGAAGGAGCGUCAACACCACUUAACAUGAGGAUCACCCAUGUGUUACUUUAAGACAGGUAGGUCGCUCUAGCGCUU [JR_Nu_ExcArginiB_Sub027] | 12.7 | 16.5 | 14.2 | 12.4 | 11.5
6 | UCGCUCGCAGAAAUGCGAGCGAGUUGCGAUACCAGCCCGGAAACGGGCCCUUGGCAGCGCACAUGAGGAUCACCCAUGUCAUGUU [Exclusion - Theophylline A Attempt #2 (HarryS)] | 17.3 | 24.7 |  |  | 18.1
7 | UCGCUCUGGGUGAAUCCCGGAGAUGUGGAAGGAGCGGACGAAAGUCCAGGUAGGUCGCCAUCGAACAUGAGGAUCACCCAUGUAC [Same State - Arginine A (Freestyle 25)] | 13.3 | 338 | 60.5 | 88.8 | 21.8
8 | UCGGGCAGAGCGGCCGCCACUGUUUGGCAUGCGGAUGAAGGAACAUGAGGAUCACCCAUGUAGAUUAGGACCGGGCUUUCGGAGA [cctchmullin] | 19.3 | 32.8 | 25.5 | 21.4 | 22.2
9 | UCGUGUAAAACGGAUACCAGUGAGAAGGAUACAUGAGGAUCACCCAUGUGAGUUGAUCCACACCCUUGGCAGCUGUAUAUAUCUA [ozomullin] | 105 | 185 |  |  | 122
10 | UCGUUUUAGUCGGCCGCCACUGAACUCAUGUUCAACAUGAGGAUCACCCAUGUACCUUAUUUUAACAGGACCGGGACGUAAUAGA [JR_ExcTryptoB_Sub001] | 165 | 264 | 258 |  | 
11 | UCUCACAUGAGGAUCACCCAUGUUAAGGCCCGAGGACCGGUACGGCCGCCACUCGUUGGAAGCCGGUAACGUACGAAUCUUCCGU [theeternabot_sameState_MS2_Trp_A_18] | 16.2 | 26.9 | 22.9 |  | 
12 | UCUUUCUAUAGUGAUACCAGACGUACAUGAGGAUCACCCAUGUUACAUUCUUGGUUAAAAGUCCCUUGGCAGCACGAUUUGUUCG [JR_Nu_ExcTheophyB_Sub027] | 9.7 | 10.9 |  |  | 10.3
13 | UCUUUCUAUGUAGAUACCAGCAUGUUAUAUUUCUAAUGACAUGAGGAUCACCCAUGUAAAUGCCCUUGGCAGCUGCGUUUUCUUU [SSTHB #5] | 14.2 | 20.2 |  |  | 15.2
14 | UGACAUUGCUCAGAUACCAGACAUGAGCAUCAGCCAUGUGCCAACAAGUACAUAAUAAAAGUCCCUUGGCAGCUGAGCAAUGUCU [TheoBX 20 #MS2Left #AlternativeMS2 #Theo2] | 13.2 | 16.2 | 68.4 | 11.3 | 11.3
15 | UGACAUUGCUCAGAUACCAGACAUGAGGAUCACCCAUGUACCAAGGUAACCGAAAGGCAUGUCCCUUGGCAGCUGAGCAAUGUCU [TheoBX 2 #MS2Left #Theo2 #StaticStem] | 13 | 18.9 |  |  | 11.9
16 | UGACAUUGCUCAGAUACCAGACAUGAGGAUCACCCAUGUACCAAGGUAAGAAAAUAACAUGUCCCUUGGCAGCUGAGCAAUGUCU [First try #MS2Left #Theo2] | 16.4 | 38.4 |  |  | 14.6
17 | UGACAUUGCUCAGAUACCAGACUUGAGGAACACCCAAGUGCCAACAAGUAUAUAAUAAAAGUCCCUUGGCAGCUGAGCAAUGUCU [TheoBX 19 #MS2Left #AlternativeMS2 #Theo2] | 42.8 | 105 | 318 | 47.8 | 45.3
18 | UGACAUUGCUCAGAUACCAGACUUGAGGAUCACCCAAGUGCCAACAAGUAUAUAAUAAAAGUCCCUUGGCAGCUGAGCAAUGUCU [TheoBX 18#MS2Left #AlternativeMS2 #Theo2] | 42.7 | 28.6 | 137 | 28 | 17.5
19 | UGACAUUGCUGCGAUACCAGACAUGAGGAUCACCCAUGUACCAAGGUAAAGAAAUAACGUGUCCCUUGGCAGCGCAGCAAUGUCU [MAT - Exclusion Theophlline B - Mod of Eli - D8] | 11.5 | 13.9 |  |  | 10.1

Row | Sequence | apparent KD of MS2 coat protein (input ligand: arginine 13.2 mM) [nM] | apparent KD of MS2 coat protein [1] [nM] | apparent KD of MS2 coat protein [2] [nM] | apparent KD of MS2 coat protein (input ligand: none) [nM] | apparent KD of MS2 coat protein [3] [nM]
20 | UGACCCUUCACGGCCGCCACUCAUUUUAAGUAGAGAGAGUACAUGAGGAUCACCCAUGUGAGAGAGAGGACCGGGUGAGAUGUUG [ss-trypB-0(N)] | 15.5 | 30.8 | 16.8 | 16.3 | 15.4
21 | UGAGUUAGACAAAAGUCUAGCUCUGGUGAAGGAGCGUCCGAAAGGACAGGUAGGUCGCACCACAUGAGGAUCACCCAUGUUCCUU [ArgAS 10 #OpenEnded] | 112 | 192 | 323 | 227 | 216
22 | UGAGUUAGACAAAAGUCUAGCUCUGGUGAAGGAGCGUCCGAAAGGACAGGUAGGUCGCACCACCUGAGGAUCACCCAGGUUCCUA [ArgAS 14 #OpenEnded #AlternativeMS2] | 28.5 | 29.8 | 57.2 | 42.1 | 38.9
23 | UGAUAUAUGCGAAGGAGCGGGAAAUAUAUAUAUAUAAUCCUAACAUGAGGAUCACCCAUGUCCCAGGUAGGUCGCGCAUAUAUUG [12.D] | 58.7 | 78.5 | 77.1 | 64.8 | 59.7
24 | UGAUCCUACAGAGAUACCAGUGCCACUAAAUAACUAAACACAUGAGGAUCACCCAUGUAACACCCUUGGCAGCUCAACUAAAGGG [Same State Theophylline B GF16] | 19.7 | 25.5 |  |  | 26.8
25 | UGAUCCUACAGAGAUACCAGUGCCACUGAGUGACCAGACACAUGAGGAUCACCCAUGUAACACCCUUGGCAGCUCAACUAAAGGG [Same State Theophylline B GF17] | 16.2 | 20.5 |  |  | 21.4
26 | UGAUCCUACAGAGAUACCAGUGCCGCUAGAUAACUAUGCACAUGAGGAUCACCCAUGUAACACCCUUGGCAGCUCAACUAAAGGG [Same State Theophylline B GF20] | 42.5 | 127 |  |  | 79.7
27 | UGAUGGUGCUGAAGGAGCGUGUAAGAACAAGAACAUGAGGAUCACCCAUGUAUUAAUUUAACACAGGUAGGUCGCGGUGUUAUUG [11.L] | 30.5 | 42.5 | 45.8 | 25.4 | 19.7
28 | UGCCGAGACGUGGAUUACCCGUGUACCGAAGGAGCGCCCGAAAGGGCAGGUAGGUCGCGGAGGACAUGAGGAUCACCCAUGUCGA | 37.3 | 93.5 | 65 | 52.1 | 83.7
29 | UGCCUAGACGUGGAUUACCCGUGUACCGAAGGAGCGCCCGAAAGGGCAGGUAGGUCGCGGAGGACAUGAGGAUCACCCAUGUUUA | 31.9 | 151 | 431 | 201 | 175
30 | UGCGAUGAACCUGAUACCAGAUGUAUUUGCUCCUCGGACAACAUGAGGAUCACCCAUGUCAUCCCUUGGCAGCAGGAGCGAAAGC [theeternabot_exclusion_MS2_Theo_B_21] | 12.8 | 14.3 |  |  | 11.4
31 | UGGCGAGAAGGAAGGAGCGUCAGCUGAGUCACAUGAGGAUCACCCAUGUAGCACAUAGUGUGACAGGUAGGUCGCCUUCUGCCCU [SS-ArgB17] | 13.5 | 15.4 | 10.8 | 10.3 | 9.41
32 | UGGUACAUGAGGAUCACCCAUGUGCCGGAUACCAGAGAGCCGGCUCUCCCUUGGCAGCUGGCGCGACAUGAGGAUCACCCAUGUG [Exclusion Theophylline A GF18] | 18.1 | 32.2 |  |  | 24.6
33 | UGGUACAUGGCGGCCGCCACUGGGUUGAAUACCUGAGGAUCACCCUGGUAAAACGCGAAAGCGACUAGGACCGGGUCAUGUACCU | 98.8 | 162 | 385 | 148 | 44.5
34 | UGGUACUAGGCGGCCGCCACUGGGUGAUACAUGAGGAUCACCCAUGUUUAAUGCCGAGAGGCAACCAGGACCGGGCCUAGUACAU | 139 | 366 | 473 | 327 | 19.5
35 | UGGUCCGGCGGAAGGAGCGACAUGAGGAUCACCCAUGUCUCCCGUUAUGGGAGUUCUUUAGGUCAGGUAGGUCGCCGGCGGGUCA [#1 Exclusion - Arginine B Attempt #11 (Inspired by Omei)] | 196 | 80.6 | 221 | 51.6 | 62.9
36 | UGGUGCCCUGUAUACAUUGUAAUCCUAAUGCGAGGACCGGUACGGCCGCCACUCGUUGCGGAACAUGAGGAUCACCCAUGUAACA [theeternabot_exclusion_MS2_Trp_A_21] | 17 | 26.2 | 32 |  | 
37 | UGGUGUAGGGUAAAUAGGCUGAGUACAGAAGGAGCGCGAAUAAACGCAGGUAGGUCGCUGGACUCCACAUGAGGAUCACCCAUGU [Same State Arginine A GF 28] | 35.5 | 34.1 | 23.3 | 28.4 | 36.4
38 | UGGUUUGUGAUGGAUACCAGCAGAGAAAACGUUUAUCCUAACAUGAGGAUCACCCAUGUAUGCCCUUGGCAGCUGUUGUGGGCUG [8.T] | 31.9 | 49.5 |  |  | 30.4
